No end group written: not given here.
Target: T1, human Y4 receptor (human, UniProt P50391 1-375)
Test: 125I-PP displacement

T1 sequence (P50391 whole entry): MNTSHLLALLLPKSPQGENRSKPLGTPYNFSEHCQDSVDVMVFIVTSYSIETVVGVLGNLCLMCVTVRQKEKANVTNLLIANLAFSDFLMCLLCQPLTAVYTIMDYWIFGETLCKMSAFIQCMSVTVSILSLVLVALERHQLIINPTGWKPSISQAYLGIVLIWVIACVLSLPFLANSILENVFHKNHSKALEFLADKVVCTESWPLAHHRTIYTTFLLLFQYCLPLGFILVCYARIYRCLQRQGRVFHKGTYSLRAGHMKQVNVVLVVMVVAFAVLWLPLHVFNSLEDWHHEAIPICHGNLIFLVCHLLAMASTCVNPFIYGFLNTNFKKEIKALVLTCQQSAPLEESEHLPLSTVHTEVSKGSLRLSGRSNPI

APLEPHYPGDNATPEQLAKYAADLRRYINKLTRPRY [4057751] and PAPLEPSYPGDNATPEQMAKYAAALRRYINLLTRPRY [4058052] are within 1.5-fold of each other in IC50: 65 pM for the first, 85 pM for the second.

PAPLEPHYPGDNATPEQMAKYAADLRRYINKLTRPRF [4057747] and PAPLEPVYPGDNASPEQMARYAAELRRYINKLTRPRY [4057770] are within 1.5-fold of each other in IC50: 66 pM for the first, 81 pM for the second.

Compared with PLEPHYPGDDATPQQMARYAAELRRYINKLTRPRY [4057898], PAPLEPHYPGDNATPEQMAKYYSELRRYINKLTRPRY [4057763] is 2.8-fold higher in IC50: 63 pM for the first, 174 pM for the second.

AAPLEPTYPGDNATPEQMAHYYSELRRYINKLTRPRY [4057782] and AAPLEPSYPGDNATPEQMAHYYSELRRYINKLTRPRY [4057777] are within 1.5-fold of each other in IC50: 78 pM for the first, 88 pM for the second.

PAPLEPTYPGDNATPEQLAHYYSELRRYINKLTRPRY [4057785] and AAPLEPHYPGDDATPQQMAHYYSELRRYINKLTRPRY [4057788] are within 1.5-fold of each other in IC50: 134 pM for the first, 155 pM for the second.

PAPLEPTYPGDNATPEQMAHYYSELRRYINKLTRPRY [4057783] and PAPLEPHYPGDDATPQQMARYAAELRRYINLLTRPRY [4058057] are within 1.5-fold of each other in IC50: 154 pM for the first, 111 pM for the second.

First: PAPLEPSYPGDDATPQQMAHYYAELRRYINKLTRPRY [4057774]
Second: YAPLEPHYPGDDATPQQMARYAAELRRYINLLTRPRY [4058055]
The IC50 of the first is 2.1-fold higher: 227 pM for the first, 110 pM for the second.

APLEPHYPGDDATPQQMARYAAELRRYINLLTRPRY [4058056] and PLEPHYPGDNATPEQLAKYAADLRRYINKLTRPRY [4057893] are within 1.5-fold of each other in IC50: 100 pM for the first, 144 pM for the second.

PLEPHYPGDNATPEQMARYAAELRRYINKLTRPRY [4057900] and PAPLEPHYPGDNATPEQLAKYAADLRRYINKLTRPRY [4057753] are within 1.5-fold of each other in IC50: 90 pM for the first, 70 pM for the second.

Going from HAPLEPVYPGDNATPEQMAKYAADLRRYINKLTRPRY [4057879] to PAPLEPHYPGDNATPEQMAKYAAELRRYINKLTRPRY [4057766], the IC50 falls from 134 pM to 89 pM (1.5-fold).

Going from HAPLEPHYPGDNATPEQMAKYAADLRRYINKLTRPRY [4057891] to AAPLEPHYPGDNATPEQMAKYAADLRRYINKLTRPRF [4057746], the IC50 falls from 146 pM to 72 pM (2-fold). The second is the more potent here.

Going from AAPLEPHYPGDNATPEQMAKYYSELRRYINKLTRPRY [4057762] to AAPLEPHYPGDNATPEQLAKYAADLRRYINKLTRPRY [4057752], the IC50 falls from 167 pM to 71 pM (2.4-fold).

AAPLEPTYPGDNATPEQLAHYYSELRRYINKLTRPRY [4057784] and GAPLEPHYPGDNATPEQMARYAAELRRYINKLTRPRY [4057903] are within 1.5-fold of each other in IC50: 102 pM for the first, 90 pM for the second.

In the case of PAPLEPHYPGDNATPEQMAKYAAALRRYINKLTRPRY [4057756], the IC50 is reported as 124 pM.

Target: T1, human Y4 receptor
Test: 125I-PP displacement
Remark: another data set of the same source

Compared with APLEPSYPGDNATPEQMAKYAAELRRYINKLTRPRY [4058147], PAPLEPTYPGDNATPEQMARYAAALRRYINKLTRPRY [4058070] is 1.9-fold lower in IC50: 57 pM for the first, 30 pM for the second. The second is the more potent here.

PLEPVYPGDNATPEQLARYYSELRRYINKLTRPRY [4058296] and PAPLEPVYPGDNATPEQLARYYSELRRYINKLTRPRY [4058297] are within 1.5-fold of each other in IC50: 53 pM for the first, 43 pM for the second.

First: PAPLEAVYPGDNATPEQMARYYSELRRYINKLTRPRY (ends and bridges not checked) [compound of SEQ ID NO:702 (code 4058286)]
Second: AAPLEPVYPGDNATPEQMARYYSELRRYINKLTRPRY [4058280]
The IC50 of the first is 2.2-fold higher: 93 pM for the first, 42 pM for the second. The second is the more potent here.

Going from PAPLEIVYPGDNATPEQMARYYSELRRYINKLTRPRY [4058285] to AAPLEPVYPGDNATPEEMARYYSELRRYINKLTRPRY [4058295], the IC50 falls from 210 pM to 59 pM (3.6-fold).

Compared with PLEPSYPGDNATPEQMAKYAAELRRYINLLTRPRY [4058152], PLEPTYPGDNATPEQMARYAAALRRYINKLTRPRY [4058067] is 1.9-fold lower in IC50: 88 pM for the first, 47 pM for the second.

First: PLEPEYPGDNATPEQMAKYAAELRRYINLLTRPRY [4058154]
Second: PLEPSYPGDNATPEQMAKYAAELRRYINKLTRPRY [4058146]
The IC50 of the first is 2.3-fold higher: 105 pM for the first, 46 pM for the second. The second is the more potent here.

PLEPEYPGDNATPEEMAKYAAELRRYINKLTRPRY [4058072] and PLEPKYPGDNATPEQLAKYAAELRRYINKLTRPRY [4058165] are within 1.5-fold of each other in IC50: 51 pM for the first, 63 pM for the second.

AAPLEPKYPGDNATPEQLAKYAAELRRYINKLTRPRY [4058166] and YAPLEPSYPGDNATPEQMAKYAAELRRYINKLTRPRY [4058151] are within 1.5-fold of each other in IC50: 56 pM for the first, 58 pM for the second.

AAPLEPKYPGDNATPEQMAKYAAELRRYINKLTRPRY [4058159] and AAPLEPVYPGDNATPEQLARYYSELRRYINKLTRPRY [4058298] are within 1.5-fold of each other in IC50: 106 pM for the first, 72 pM for the second.

Going from YAPLEPKYPGDNATPEQMAKYAAELRRYINKLTRPRY [4058164] to HAPLEPKYPGDNATPEQMAKYAAELRRYINKLTRPRY [4058163], the IC50 rises from 58 pM to 87 pM (1.5-fold).

GAPLEPSYPGDNATPEQMAKYAAELRRYINKLTRPRY [4058149] and PAPLEPEYPGDNATPEELAKYAAELRRYINKLTRPRY [4058078] are within 1.5-fold of each other in IC50: 70 pM for the first, 72 pM for the second.

First: YAPLEPEYPGDNATPEEMAKYAAELRRYINKLTRPRY [4058075]
Second: HAPLEPSYPGDNATPEQMAKYAAELRRYINKLTRPRY [4058150]
The IC50 of the first is 1.9-fold lower: 58 pM for the first, 113 pM for the second.

Going from PAPLEPSYPGDNATPEQMAKYAAELRRYINLLTRPRY [4058153] to AAPLEPEYPGDNATPEEMAKYAAELRRYINKLTRPRY [4058076], the IC50 falls from 107 pM to 48 pM (2.2-fold). The second is the more potent here.

Going from PAPLEPHYPGDNATPEEMAKYAAELRRYINKLTRPRY [4058079] to GAPLEPEYPGDNATPEEMAKYAAELRRYINKLTRPRY [4058073], the IC50 rises from 71 pM to 131 pM (1.8-fold).

First: PAPLEPEYPGDNATPEQMAKYAAELRRYINLLTRPRY [4058155]
Second: GAPLEPKYPGDNATPEQMAKYAAELRRYINKLTRPRY [4058160]
The IC50 of the first is 2.4-fold higher: 125 pM for the first, 52 pM for the second.

PAPLEPKYPGDNATPEQLAKYAAELRRYINKLTRPRY [4058168] and AAPLEPSYPGDNATPEQMAKYAAELRRYINKLTRPRY [4058148] are within 1.5-fold of each other in IC50: 48 pM for the first, 51 pM for the second.

— patent US20100279930A1 (published 2010)
